Substrate in this data set: O=P(O)(O)OP(=O)(O)O
In words: PPi hydrolysis in inverted membrane vesicles, automatic Pi analyzer, two-site dimer equation. Conditions: 40°C, pH 7.2, 0.1 M MOPS-KOH, 5 mM Mg2+, 10 mM NaCl, first (stronger) site of the dimer, concentration counted as Mg2PPi complex. It counts as biochemical, Thermotoga maritima. An excerpt: PPi hydrolysis in inverted membrane vesicles, automatic Pi analyzer, two-site dimer equation on Tm‐mPPase (Thermotoga maritima membrane pyrophosphatase)

Km data for one protein are collected here from PMC9405524, “Pre‐steady‐state kinetics and solvent isotope effects support the “billiard‐type” transport mechanism in Na ^+‐translocating pyrophosphatase” (Protein Science : A Publication of the Protein Society, 2022).

B1: Tm‐mPPase (Thermotoga maritima membrane pyrophosphatase) (Thermotoga maritima MSB8) (protein)
chain: MYVAALFFLIPLVALGFAAANFAAVVRKPEGTERMKEISSYIRSGADSFLAHETKAIFKVAIVIAILLMIFTTWQTGVAFLLGAVMSASAGIVGMKMATRANVRVAEAARTTKKIGPALKVAYQGGSVMGLSVGGFALLGLVLVYLIFGKWMGQVDNLNIYTNWLGINFVPFAMTVSGYALGCSIIAMFDRVGGGVYTKAADMAADLVGKTELNLPEDDPRNPATIADNVGDNVGDVAGLGADLLESFVGAIVSSIILASYMFPIYVQKIGENLVHQVPKETIQALISYPIFFALVGLGCSMLGILYVIVKKPSDNPQRELNISLWTSALLTVVLTAFLTYFYLKDLQGLDVVGFRFGAISPWFSAIIGIFSGILIGFWAEYYTSYRYKPTQFLSKSSIEGTGMVISNGLSLGMKSVFPPTLTLVLGILFADYFAGLYGVAIAALGMLSFVATSVSVDSYGPIADNAGGISEMCELDPEVRKITDHLDAVGNTTAAIGKGFAIGSAIFAALSLFASYMFSQISPSDIGKPPSLVLLLNMLDARVIAGALLGAAITYYFSGYLISAVTKAAMKMVDEIRRQAREIPGLLEGKAKPDYNRCIEITSDNALKQMGYPAFIAILTPLVTGFLLGAEFVGGVLIGTVLSGAMLAILTANSGGAWDNAKKYLEAGNLEGYGKGSEPHKALVIGDTVGDPLKDTVGPSLDILIKIMSVVSVIAVSIFKHVHLF
notes: recombinant in E. coli C41(DE3), assayed in inverted membrane vesicles; homodimer, subunit mass 77 kDa
Turning to B1, the Km turned out to be 1.41 ± 0.04 µM.

In general, Km refers to the substrate concentration at which the rate is half of its maximum.
